Results published in doi:10.1101/2019.12.18.881029 (bioRxiv, 2019).

target: recombinant human TNFa (Shanghai Primegene Bi-Tech) (Homo sapiens, UniProt P01375)
Sequence (P01375 whole entry): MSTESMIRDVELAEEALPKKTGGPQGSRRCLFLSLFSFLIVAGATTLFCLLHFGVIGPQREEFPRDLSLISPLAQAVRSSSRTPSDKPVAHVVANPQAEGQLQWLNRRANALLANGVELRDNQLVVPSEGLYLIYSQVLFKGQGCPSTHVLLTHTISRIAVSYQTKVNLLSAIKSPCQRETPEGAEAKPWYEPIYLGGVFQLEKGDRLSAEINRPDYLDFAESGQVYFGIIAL

Binder	binding result
101 (antibody, V domains shown) VH: QSVKESEGGLFKPTDTLTLTCTVSGFSLSRYGVSWVRQAPGSGLQWIGAIGETGRAYYANWAKSRSTITRNTNVNTVTLKMTSLTAADTATYFCARGEEFNNGWGAFNIWGPGTLVTVSS VL: AYDMTQTPASVSEPVGGTVTIKCQASENIYTSLAWYQQKPGQPPKLLIYSASTLASGVPSRFKGSGSGTEFTLTISDLECADAASYYCQQGFATSNVENPFGGGTEVVVK	binds
877 (antibody, V domains shown) VH: QSVKESEGGLFKPTDTLTLTCTVSGFSLSRYGVTWVRQAPGNGLQWIGTIGETGRSYYASWAKSRSTVTRNTNENTVTLKMTSLTAADTATYFCARGELFNNGWGAFNIWGPGTLVTVSS VL: AYDMTQTPASVSEPVGGTVTIKCQASENIYSSLAWYQQKPGQPPKLLIYSASTLASGVSSRFKGSGSGTEFTLTISGVQCEDAATYYCQQGFGTNNVENPFGGGTEVVVK	binds
810 (antibody, V domains shown) VH: QSVKESEGGLFKPADTLTLTCTVSGFSLSRYGVSWVRQAPGNGLEWIGTIGEAGRAYYANWARSRSTITRTTNLNTVTLTMTSLTAADTATYFCARGEVFNNGWGAFNIWGPGTLVTVSS VL: AYDMTQTPASVSEPVGGTVTIKCQASESIYSGLAWYQQKPGQPPKLLIYQASTLASGVSSRFKGSGSGTDFTLAISDLECADAATYYCQQGFGTSNVENPFGGGSEVVVK	binds
